From publication PMC8196545 (Cell reports, 2021) come the findings set out here.

Residue numbers refer to the chain shown, from its start.

This test has as its target HIV-1 NL4-3 Env on infected cells (HIV-1 group M subtype B, NL4-3 (pNL4-3 …, strain)).

B1: c27071 (antibody, V domains shown)
VH: QFRLEQSGAEVKRPGSSVKVSCKATGGTFHTFVLSWVRQAPGQALEWMGGIIPIFGTAKYAQRFQGRVTFTTDEATNTAYMDLRRLTSDDTAVYFCARSATSDTALVDYGDYEADTFYHNHMDVWGGGTSVTVSS
VL: QSVLTQPPSASATPGQRVTISCSGSSSNIGSNSVTWYHQLPGTAPKVLIYSNDRRPSGVPDRFSGSKSGTSASLAISGLQSDDEGDFYCAAWDDSLKSPVFGGGTKLTVL
For B1, the binding result was “binds”.

B2: c10840 (antibody, V domains shown)
V domain 1: EVRLDQSGAEMRKPGTSVRLSCTVSGHTTSDFFIHWVKQAPQRGPQWMGLINVEDENVIYAEVFQGRISIVADTSKTTVFLDLSHLTFEDTALYFCTTHTLEKETGDYVAAFDSWGQGTFLSVSS
V domain 2: QSVLTQPPSVSAVPGQKVIISCSGRTSNIGTNFVSWYQQFPGAAPKLLIYDTFHRPSGISDRFSASKSDTSATLAITALQPGDEAEYYCGAWDSGLNPAVFVFGSGTRVFVL
With B2, the binding result is recorded as “binds”.

B3: c21122 (antibody, V domains shown)
VH: QVQLAQSAAEVKRPGASVKVSCKVSGNTLMEVSIQWVRQTPGKGLEWLGGFAPEKDDWVYAQKFLGRVTMTEDTSTDIAYMHMNSLTSDDTATYYCVGGWQAWGQGTLVTVSS
VL: DIQMTQSPSSLSASVGDRITITCRASQDIINYLAWYQQQAGRAPKSLIYAASSLQSGVPSKFSGSGSGTNFSLTISSLQPEDFATYYCQQYYSYPLTFGGGTKVDLR
B3: the binding result is reported as “binds”.

B4: c18622 (antibody, V domains shown)
VH: EVRLLESGGGLVQPGQSLRLSCAASGFTFRNYALAWVRQTPRKGLEWVSLLSSSGDGAFYADSLKGRFTISRDNSKNTLYLEGHSLRADDSAIYYCVKVRWLQYDWHFDLWGRGALVTVSS
VL: AIRMTQSPSTLSASVGDRVTIACRASQDIGSSLAWYQQRPGQAPRLLIYKASVLEGGVPSRFSGSGSGTEFRLIISSLQADDYATYYCQQYSGYSCTFGQGTKVDIT
In the case of B4, the binding result is “binds”.

B5: c11395 (antibody, V domains shown)
VH: DVQLLQSNPQVTKPGTTMKISCKTSGFTFSDHFIHWVRLTPARGLEWLGLLDPQGGESVTVFSETFKDRVTMTADTSKNIAYMELHTLTSEDTALYFCATTTLENDDGDYVAAFDFWGQGTPVIVSS
VL: QSVLTQTPSVSAAPGQKVTISCSGSTSNIGSNFVSWYQHSPGAAPRLIIYNNAERPSGIPARFSGSKSGSSATLAITGLQTEDEAEYFCAAWNNGLKSAHYVFGTGTRLSVL
B5: the binding result is “binds”.

B6: c11450 (antibody, V domains shown)
V domain 1: EVQLAQSGAEMRKPGTTVRISCVISGHTTTDYYVHWVQQAPGKGPQWMGLINFEDANTVYSQSFRGRVSISADISEKTVFLDLTGLTSGDTALYFCTTHTLEKDSGDYVSAFDSWGQGTLLSVSP
V domain 2: QSMLTQPPSISAVPGQKVIISCSGRTSNIGTNFVSWYQQVPGAAPRLLMYDNSNRPSGISDRFSGAKSGSTATLAITALQTEDEADYYCGSWDSGLNPPIFVFGPGTRVFVI
B6: the binding result was “binds”.

B7: c5272 (antibody, V domains shown)
VH: EVRLQESGPELVKPSGTLSLTCTIYGESIFPYFYSWIRQTAGGGLQWIGRLYSSTGSSKSNPSIHLRVALSVDRDRNQVGLRMTSMSLADTGVYYCVRDVMRGYDSFDGSSGIYGGVDIWGRGTTVTVSS
VL: QFLLTQPHSVSESPGKTITISCTRSSGTFASKSVLWFSQRPGSRPTNVIFETNRRAAGVPDRFSGSVDSSSSSATLTISGLRTEDEGDYYCQSYDGGNHVVFGGGTKVTVL
On to B7, for which the binding result is on record as “binds”.

B8: c5221 (antibody, V domains shown)
VH: QPQMKQSGIEVKKPGAAVKVSCKPSGYWFIACGISWVRQAPGRGLEWLGWVYPYNGKVNLARKFWGRVTLTADRSTETAYMELKSLTSDDTAIYYCARDSEQYDAAMPNYFTEYGMDVWGQGTTVIVSS
VL: EIVLTQSPDTLSLSPGETAALSCRASQSITGKGLAWYKQRPGQPPSLFVFGVSKRAAGVPDRVSGSGSGTDYILTIRRLEPEDSAVYFCQQYQDPARTFGQGTKLEIK
As for B8, the binding result is reported as “binds”.

B9: c5300 (antibody, V domains shown)
VH: QMQLQESGPGLVKPSETLTVTCYVSGGSISRYHWAWIRQSAGKPLEWIGSVYGNSGSVRSSPSLHTRVALVIGSTYFSLKLKSATAADTAVYYCARELARDFNYDFGHGGSSFGIDVWGRGIMVTVSS
VL: NFILTQPHSVSGSPGKTVIISCTRSSGNIGDNSVQWYQHRPGTSPTTVISEKNRRPSGIPGRFSASIDTSSNSASLTISDLRSEDEAVYYCQSCDGGNRLIFGGGTTLTVL
With B9, the binding result is “binds”.

B10: c13501 (antibody, V domains shown)
VH: QVQLQQWGAGLLKPSETLSLTCAIYGGSFDDNSWTWIRQSPGGGLEWIGEIKYSGTSDYNLSLKSRITMSIDMSKKQFSLKLTSVTAADTGLYFCARARLSKFNSAWSWEHHYYMDVWATGTAVTVSS
VL: DIQMTQSPSSLSASVGDRVTVTCRASQNIGNYLNWYQQKPGKAPKLLIFATSTLHGGVPSRFSGSGSGTDFTLSITNVQSEDVAIYFCQQSYSVPYSFGRGTSLDMR
B10: the binding result is on record as “binds”.

B11: c29260 (antibody, V domains shown)
VH: QVRLQESGPGLVRPSETLSLTCLVSGDSITSNYWSWIRQPPGKTLEWIGFMYNSGDANYNPSLQSRVSISADTANNQFALRLTSVTAADTAVYYCARHPSRGSNYDSVTGDTYYYYYGIDVWGPGKAVAVSS
VL: DIQMTQSTPSLSASLGDKITISCQASRDIDTSLNWYQQKPGKSPKLLVVAASTLETGVPSRFSASGSGTHFTLTINDLQRDDVATYFCQQYAALPLTFGGGTRVDLR
With B11, the binding result is “binds”.

B12: c29288 (antibody, V domains shown)
VH: B11 VH with N75K, Q77H, N104D, D106E, V108A, I119M, K126I
VL: B11 VL with V48I, Q79H, A92M, A93G
As to B12, the binding result is on record as “binds”.

B13: c5337 (antibody, V domains shown)
VH: QVRLQESAPRLVKPSETLSLTCTVSGGSIFPFFYSWIRQAPGGGLQWIGRLYSNTGSSKSNPSLHLRVALSVDRSRNQVGLKMTSMTAADTGVYYCVRDIMRDFDDFNGAGGVYGGVDIWGRGTAVTVSS
VL: QFVLTQPPSVSESPGKTISISCTRSSGTFARNSVHWYLQRPGSVPKTVIYDGNRRPSGIPGRFSASIDVSSGSASLTISGLTPEDEAEYYCQSYDGGNHVVFGGGTKVTVL
In the case of B13, the binding result is “binds”.

B14: c27236 (antibody, V domains shown)
VH: QVQLVQSGAEVKTPGSSVKVACKTSGGPFSSYAISWIRQAPGEGLEWMGGVTPLFGTARYTQKFQGRLTITTDESTSTTYMSLSGLKSEDTAVYYCASLAYIGSGPKWGQGALVTVSS
VL: DIQMTQSPSAMSASVGERVTITCRASQGISSDLAWFQQKPGKVPERLIYAASNLQSGVPSRFSGSGSGTQFTLTISGLQAEDSATYYCLQHDSYPWTFGQGTKVEIK
Regarding B14, the binding result was “binds”.

B15: c21079 (antibody, V domains shown)
VH: EVQLVQSGGGEARPGDSLRISCAVSGFQFNQYAMSWVRQRPGKGLEWVSSADWTGNSVHYAGSLGDRFSVSRALYGHSLELQMNSLRPEDTAVYYCARQDFYASESRAFSEIHGNFFDLWGQGTRVTVSP
VL: QSALTQPPSASGSPGQSVIISCTGASSDISGHEYVSWYQQHAAKVPKLIIYEVTKRPSGVPDRFIGSRSGNTASLTISGLQADDEADYYCASYRHNDRSYVFGTGTTVAVL
As for B15, the binding result is “binds”.

B16: c1369 (antibody, V domains shown)
VH: QVRLHQWGEGLLRPSDTLSLTCSLSGNVFYRTFFNWIRQSPGKGLEWIAEVSFAGDWTYNPSLKSRVTTYVDGFKYHVSLQMRSMTAADAGVYYCASGGGSFDVDSWGQGIRVTVSS
VL: EIVLTQTPLSSSVTLGQSASISCRSSQSLQHSNGNTYLSWFQQRPGQPPRLLIRKISNRFSEVPDRFTGSGSGTDFTLTIDRVEPEDVGTYYCVQATQFPWTFGQGTTVDIT
B16: the binding result was “binds”.

B17: c31461 (antibody, V domains shown)
VH: QLQLQESGPGLVKPSETLSLTCSASGVSIGGGSSFLGWIRQPPGMGLEWIVTHYSAAKIYYNPSLQSRVITSLDTSKTQFSLKLTSMTATDTAIYYCARGNWQLQAFDSWGQGILVTVSS
VL: DIQMTQSPSTLSASVGDRVTITCRASQDIRSWLAWYQQKPGEAPKLLIYTASRLHSGVPSRFSGSGSGTEFTLTISSLQPDDFATYYCQQHNSYSGTFGQGTKVEIK
Turning to B17, the binding result is listed as “binds”.

B18: c11475 (antibody, V domains shown)
VH: EARLVESGGGRVQPGGSLRLSCEASGFRFSSYTFNWVRQSPGKGLEWLAKISASPFGRSQVNYAHSVEGRFIISRDNDGNSLRLQMNDLRGGDSGVYYCARAPWQERNLDYNYAMDVWGQGTTVIVSS
VL: ELVLTQSPGTLSLSPGERATVSCRASQSLRRDSLAWYQQKPGHSPRLLIFAASNRVPGIPYRFSGTGSGTQFTLTIEKMEPEDFAVYYCQSYGSSPLYTFGQGTKLDIN
For B18, the binding result is on record as “binds”.

B19: c5539 (antibody, V domains shown)
VH: QVRLEQWGPGLLKPSETLSLTCAVYGESFDDYSWTWIRQTPSLGLQWIGEIRPFGEIVHKSSLSGRLSFSRDASMRRVYLKLTSVTAADAGVYFCARGPVIYQNPHFYYRGYNVWGQGTTVTVSA
VL: DVAVTQSPRSLVVTPGETATIFCRSSQSLRHGNGMHYLDWYLQKPGQSPQLLIYLTSNRASGVPDRFSGSGSGTEFTLKISRVEADDVGIYYCMQAIQDPRVFGQGTRLELK
As for B19, the binding result is on record as “binds”.

B20: c11673 (antibody, V domains shown)
VH: EVKLVESGGTQVQPGGSLRISCVGSGIRFSSYSFNWVRQAPGKGPEWLAYISASPFGRSKVTYAQSVEGRFTVSRDNDANSLYLQMTGLTRDDTAVYYCARAPYYEGNFHYNYAMDVWGLGTPVIVSS
VL: GVVLTQSPGTLSVSPGERATVSCRASQSLSRDSLVWYQQKPGQPPRLLIFGTSNRVPGIPDRFSGGGSGTQFTLTISRLEPEDFAVYYCQNYGLSPLYSFGQGTKLEIK
Consider B20, for which the binding result is “binds”.

B21: c11452 (antibody, V domains shown)
VH: B20 VH with I27F, A49T, Q65P, T72I, Y98H, H110Q, P123T
VL: B20 VL with V13L, F50Y
Turning to B21, the binding result was “binds”.
